This note sets out measurements from paper PMC10758295 (Cell reports, 2023).

The experiment deals with CENP-A-H4 complex (UniProt P49450 1-140; P62805 1-103). The experiment can be described thus: native gel or EMSA.
CENP-A-H4 complex, sequence (P49450 whole entry, one chain of several): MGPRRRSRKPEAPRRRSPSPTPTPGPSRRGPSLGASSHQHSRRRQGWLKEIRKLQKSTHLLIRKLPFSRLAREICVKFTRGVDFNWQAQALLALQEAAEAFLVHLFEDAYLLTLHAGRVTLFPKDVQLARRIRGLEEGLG

B1: His6-EWSR1 (natural protein)
chain: MASTDYSTYSQAAAQQGYSAYTAQPTQGYAQTTQAYGQQSYGTYGQPTDVSYTQAQTTATYGQTAYATSYGQPPTGYTTPTAPQAYSQPVQGYGTGAYDTTTATVTTTQASYAAQSAYGTQPAYPAYGQQPAATAPTRPQDGNKPTETSQPQSSTGGYNQPSLGYGQSNYSYPQVPGSYPMQPVTAPPSYPPTSYSSTQPTSYDQSSYSQQNTYGQPSSYGQQSSYGQQSSYGQQPPTSYPPQTGSYSQAPSQYSQQSSSYGQQSSFRQDHPSSMGVYGQESGGFSGPGENRSMSGPDNRGRGRGGFDRGGMSRGGRGGGRGGMGSAGERGGFNKPGGPMDEGPDLDLGPPVDPDEDSDNSAIYVQGLNDSVTLDDLADFFKQCGVVKMNKRTGQPMIHIYLDKETGKPKGDATVSYEDPPTAKAAVEWFDGKDFQGSKLKVSLARKKPPMNSMRGGLPPREGRGMPPPLRGGPGGPGGPGGPMGRMGGRGGDRGGFPPRGPRGSRGNPSGGGNVQHRAGDWQCPNPGCGNQNFAWRTECNQCKAPKPEGFLPPPFPPPGGDRGRGGPGGMRGGRGGLMDRGGPGGMFRGGRGGDRGGFRGGRGMDRGGFGGGRRGGPGGPPGPLMEQMGGRRGGRGGPGKMDKGEHRQERRDRPY
For B1, the binding result is listed as “binds”.
